Assay results as given in patent US20230265151A1, “GIP/GLP1 CO-AGONIST COMPOUNDS” (priority 2020, published 2023).

Assays:
human GLP-1 receptor [1] = biological target: T1, human GLP-1 receptor (human, UniProt P43220 24-463); test: SPA competition vs [125I]-GLP-1, hGLP-1R membranes
T1 construct: whole, on cells; also called hGLP-1R; human glucagon-like peptide-1 receptor
Experimental: The binding buffer contains 25 mM HEPES, pH 7.4, 2.5 mM CaCl₂, 1 mM MgCl₂, 0.1% (w/v) bacitracin, 0.003% (w/v) TWEEN®-20, and Roche Complete™ Protease Inhibitors without EDTA.
(§1) Data are analyzed using four-parameter (curve maximum, curve minimum, IC₅₀, Hill slope) nonlinear regression routines (Genedata Screener, version 12.0.4, Genedata AG, Basal, Switzerland). […] Values for Kᵢ are reported as the geometric mean, with error expressed as the standard error of the mean (SEM) and n is equal to the number of independent replicates (determined in assays performed on different days). Geometric Means are calculated as follows: […]

human GIP receptor [2] = biological target: T2, human GIP receptor (human, UniProt P48546 22-466); test: SPA competition vs [125I]-GIP, hGIPR membranes
T2 construct: whole, on cells; also called hGIPR; human glucose-dependent insulinotropic polypeptide receptor
T2 sequence (looked up): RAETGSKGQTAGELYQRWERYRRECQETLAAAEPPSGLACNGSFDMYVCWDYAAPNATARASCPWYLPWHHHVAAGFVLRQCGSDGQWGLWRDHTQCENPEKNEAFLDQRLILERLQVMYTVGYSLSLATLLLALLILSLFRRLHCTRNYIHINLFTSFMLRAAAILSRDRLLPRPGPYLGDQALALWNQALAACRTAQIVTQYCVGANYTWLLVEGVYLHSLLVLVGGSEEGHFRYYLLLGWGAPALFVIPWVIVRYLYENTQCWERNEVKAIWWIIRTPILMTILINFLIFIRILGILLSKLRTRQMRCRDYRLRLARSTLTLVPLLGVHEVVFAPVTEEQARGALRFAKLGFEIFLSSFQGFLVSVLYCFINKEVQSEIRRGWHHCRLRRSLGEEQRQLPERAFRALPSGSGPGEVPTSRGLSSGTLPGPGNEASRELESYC
Experimental: The binding buffer contains 25 mM HEPES, pH 7.4, 2.5 mM CaCl₂, 1 mM MgCl₂, 0.1% (w/v) bacitracin, 0.003% (w/v) TWEEN®-20, and Roche Complete™ Protease Inhibitors without EDTA. […] Plates are sealed and mixed on a plate shaker (setting 6) for 1 minute and read with a PerkinElmer Trilux MicroBeta® scintillation counter after 2.5 to 12 hours of incubation/settling time at room temperature.
as §1

human glucagon receptor = human glucagon receptor (human, UniProt P47871 26-477); test: cell-based or functional assay
human GIP receptor [3] = biological target: T3, human GIP receptor (human, UniProt P48546 22-466); test: cell-based or functional assay
T3 sequence (looked up): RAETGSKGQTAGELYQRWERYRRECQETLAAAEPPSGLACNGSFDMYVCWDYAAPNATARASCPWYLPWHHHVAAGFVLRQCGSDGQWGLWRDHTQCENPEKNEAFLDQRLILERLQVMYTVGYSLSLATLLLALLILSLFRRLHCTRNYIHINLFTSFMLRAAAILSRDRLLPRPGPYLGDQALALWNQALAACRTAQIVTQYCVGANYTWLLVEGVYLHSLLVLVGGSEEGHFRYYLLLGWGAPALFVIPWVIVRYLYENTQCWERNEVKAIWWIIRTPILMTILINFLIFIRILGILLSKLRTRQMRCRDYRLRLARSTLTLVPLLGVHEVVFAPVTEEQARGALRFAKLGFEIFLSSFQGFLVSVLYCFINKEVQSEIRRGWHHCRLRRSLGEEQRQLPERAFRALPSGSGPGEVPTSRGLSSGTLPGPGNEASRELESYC

human GLP-1 receptor [4] = biological target: human GLP-1 receptor (human, UniProt P43220 24-463); test: cell-based or functional assay

Row | Binder | Ki (human GLP-1 receptor [1]) [nM] | Ki (human GIP receptor [2]) [nM] | EC50, cAMP (human glucagon receptor) [nM] | EC50, cAMP (human GIP receptor [3]) [nM] | Emax, cAMP (human GIP receptor [3]) [%] | EC50, cAMP (human GLP-1 receptor [4]) [nM]
1 | YXEGTXTSDXSIXLDXKAQXEFIXXLIEGGPSSGAPPPSK (Aib2, αMeF(2F)6, 4Pal10, αMeL13, Orn16, K17(Z1), Aib20, D-Glu24, αMeY25, K40(Z1), C-term NH2; Z1=AEEA2-(γ-Glu)-CO-(CH2)12-CO2H) | 3.13 | 0.0807 |  |  |  | 
2 | YXEGTXTSDXXIXLDXKAQXEFIXXLIEGGPSSGAPPPSK (Aib2, αMeF(2F)6, 4Pal10, Aib11, αMeL13, Orn16, K17(Z1), Aib20, D-Glu24, αMeY25, K40(Z1), C-term NH2; Z1=AEEA-(γ-Glu)-CO-(CH2)12-CO2H) | 2.07 | 0.091 |  |  |  | 
3 | YXEGTXTSDXXIXLDXQAQXKFIXXLIEGGPSSGAPPPSK (Aib2, αMeF(2F)6, 4Pal10, Aib11, αMeL13, Orn16, Aib20, K21(Z1), D-Glu24, αMeY25, K40(Z1), C-term NH2; Z1=AEEA2-(γ-Glu)-CO-(CH2)12-CO2H) | 0.947 | 0.0912 |  |  |  | 
4 | YXEGTXTSDXSIXLDXKAQXEFIXXLIEGGKSSGAPPPX (Aib2, αMeF(2F)6, 4Pal10, αMeL13, Orn16, Aib20, D-Glu24, αMeY25, Orn39, K17 and K31: K(AEEA2-(γ-Glu)-CO-(CH2)12-CO2H), C-terminal NH2) [Example 154] |  |  | > 9950 | 0.0299 | 96.6 | 1.69
5 | YXEGTXTSDXSIXLDXKAQXEXIXXLIEGGKSSGAPPPS (Aib2, αMeF(2F)6, 4Pal10, αMeL13, Orn16, K17(Z1), Aib20, 3FPhe22, D-Glu24, αMeY25, K31(Z1), C-term NH2; Z1=AEEA2-(γ-Glu)-CO-(CH2)12-CO2H) | 1.52 | 0.161 |  |  |  | 
6 | YXEGTXTSDXSIXLDXKAQXEFIXXLIEGGKSSGAPPPS (Aib2, αMeF6, 4Pal10, αMeL13, Orn16, K17(Z1), Aib20, D-Glu24, αMeF25, K31(Z1), C-term NH2; Z1=AEEA2-(γ-Glu)-CO-(CH2)12-CO2H) | 3.67 | 0.0621 |  |  |  | 
7 | YXEGTXTSDXSIXLDXKAQXEFIXXLIEGGKSSGAPPPS (Aib2, αMeF(2F)6, 4Pal10, αMeL13, Orn16, K17(Z1), Aib20, D-Glu24, αMeY25, K31(Z1), C-term NH2; Z1=AEEA3-(γ-Glu)-CO-(CH2)12-CO2H) | 2.66 | 0.0653 |  |  |  | 
8 | YXEGTXTSDXSIXLDXKAQXEXIXXLIEGGKSSGAPPPS (Aib2, αMeF(2F)6, 4Pal10, αMeL13, Orn16, K17(Z1), Aib20, 3ClPhe22, D-Glu24, αMeY25, K31(Z1), C-term NH2; Z1=AEEA2-(γ-Glu)-CO-(CH2)12-CO2H) | 1.59 | 0.132 |  |  |  | 
9 | YXEGTXTSDXSIXLDXKAQXEFIXXLIEGGKSSGAPPPS (Aib2, αMeF(2F)6, 4Pal10, αMeL13, Orn16, K17(Z1), Aib20, D-Glu24, αMeY25, K31(Z1), C-term NH2; Z1=AEEA2-(γ-Glu)-CO-(CH2)10-CO2H) | 2.99 | 0.145 |  |  |  | 
10 | YXEGTXTSDXSIXLDXKAQXEFIXXLIEGKPSSGAPPPS (Aib2, αMeF(2F)6, 4Pal10, αMeL13, Orn16, Aib20, D-Glu24, αMeY25, K17 and K30: K(AEEA2-(γ-Glu)-CO-(CH2)12-CO2H), C-terminal NH2) [Example 18] |  |  | > 9950 | 0.0226 | 97.1 | 5.06
11 | YXEGTXTSDXSIXLDXKAQXEFIXXLIEGGKSSGAPPPS (Aib2, αMeF(2F)6, 4Pal10, αMeL13, Orn16, K17(Z1), Aib20, D-Glu24, αMeY25, K31(Z1), C-term NH2; Z1=AEEA-(γ-Glu)-AEEA-CO-(CH2)12-CO2H) | 2.5 | 0.092 |  |  |  | 
12 | YXEGTXTSDXSIXLDXKAQXEFIXXLIEGGKSSGAPPPS (Aib2, αMeF(2F)6, 4Pal10, αMeL13, Orn16, K17(Z1), Aib20, D-Glu24, αMeY25, K31(Z1), C-term NH2; Z1=(γ-Glu)-AEEA2-CO-(CH2)12-CO2H) | 2.06 | 0.108 |  |  |  | 
13 | YXEGTXTSDXSIXLDXKAQXKFIXXLIEGGPSSGAPPPS (Aib2, αMeF(2F)6, 4Pal10, αMeL13, Orn16, Aib20, D-Glu24, αMeY25, K17 and K21: K(AEEA2-(γ-Glu)-CO-(CH2)12-CO2H), C-terminal NH2) [Example 15] |  |  | > 9950 | 0.0133 |  | 0.995
14 | YXEGTXTSDXSIXLDXKAQXEFIXXLIEGGKSSGAPPPS (Aib2, αMeF(2F)6, 4Pal10, αMeL13, Orn16, K17(Z1), Aib20, D-Glu24, αMeY25, K31(Z1), C-term NH2; Z1=AEEA2-(εK)-(γ-Glu)-CO-(CH2)12-CO2H) | 2.81 | 0.131 |  |  |  | 
15 | YXEGTXTSDXSIXLDXKAQXEFIXXLIKGGPSSGAPPPS (Aib2, αMeF(2F)6, 4Pal10, αMeL13, Orn16, Aib20, D-Glu24, αMeY25, K17 and K28: K(AEEA2-(γ-Glu)-CO-(CH2)12-CO2H), C-terminal NH2) [Example 17] |  |  | > 9950 | 0.0129 |  | 1.57
16 | YXEGTXTSDXXIXLDXKAQXEFIXXLIKGGPSSGAPPPS (Aib2, αMeF(2F)6, 4Pal10, Aib11, αMeL13, Orn16, K17(Z1), Aib20, D-Glu24, αMeY25, K28(Z1), C-term NH2; Z1=AEEA-(γ-Glu)-CO-(CH2)12-CO2H) | 2.17 | 0.0747 |  |  |  | 
17 | YXEGTXTSDXSIXLDXKAQXEFIXXLIEGGKSSGAPPPS (Aib2, αMeF(2F)6, αMeV10, αMeL13, Orn16, K17(Z1), Aib20, D-Glu24, αMeY25, K31(Z1), C-term NH2; Z1=AEEA2-(γ-Glu)-CO-(CH2)12-CO2H) | 1.16 | 0.0832 |  |  |  | 
